B1: ADT1-4(S74L) (antibody, V domains shown)
VH: QVQLQQSGPGLVKPSQTLSLTCAISGDSVSSKSAAWNWIRQSPSRGLEWLGRTYYRSKWSTDYAASVKSRITINPDTSKNQLSLQLNSVTPEDTAVYYCARTWSGYVDVWGQGTLVTVSS
VL: DIQMTQSPPALSASVGDRVTITCRASQDINDWLAWYQHKPGKAPKLLIYDASSLESGVPLRFSGSGSGTEFTLTISSLQPDDFATYYCQQSYSTPQVTFGQGTRLEIKR
B2: ADT1-4-2(L74S) (antibody, part only; not given: mutant kappa chain, V domains shown, part only)
VH: EVQLQQSGPGLVKPSQTLSLTCAISGDSVSSKSAAWNWIRQSPSRGLEWLGRTYYRSKWSTDYAASVKSRITINPDTSKNQLSLQLNSVTPEDTAVYYCARTWVGYVDRWGQGTLVTVSS

What was measured:
[1] = molecular target: cynomolgus Vδ1 antigen DV1/GV77, recombinant heterodimer (食蟹猴 (cynomolgus)); test: SPR (Reichert 4SPR), antibody on protein A chip
[2] = molecular target: L1 (DV1-GV4), soluble human Vδ1Vγ4 γδTCR heterodimer, leucine zipper (LZ) format (human); test: SPR (Reichert 4SPR), antibody on protein A chip
L1 (DV1-GV4), soluble human Vδ1Vγ4 γδTCR heterodimer, leucine zipper (LZ) format (human), sequence (main, as listed by the source): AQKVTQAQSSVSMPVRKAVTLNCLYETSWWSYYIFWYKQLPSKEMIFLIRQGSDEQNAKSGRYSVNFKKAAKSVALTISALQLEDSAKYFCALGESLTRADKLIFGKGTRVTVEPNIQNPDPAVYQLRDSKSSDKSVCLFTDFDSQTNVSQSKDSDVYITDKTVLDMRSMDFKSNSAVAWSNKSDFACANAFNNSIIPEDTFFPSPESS

cynomolgus Vδ1 antigen DV1/GV77, recombinant heterodimer (食蟹猴 (cynomolgus)), sequence (main, as listed by the source): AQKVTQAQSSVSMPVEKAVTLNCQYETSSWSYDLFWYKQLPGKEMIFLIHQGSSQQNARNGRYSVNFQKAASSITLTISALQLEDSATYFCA

Binder | fold increase of affinity against ADT1-4 [1] [fold] | fold decrease of affinity against ADT1-4-2 [2] [fold] | fold decrease of affinity against ADT1-4-2 [1] [fold]
B1 | 5 | – | –
B2 | – | 11 | 23

Reference: patent publication CN117999282A
